# According to patent publication US20250034212A1, “PEPTIDE” (PEPTIDREAM INC., priority 2021, published 2025):
# Starred links: 1 amine or outer side, 2 acyl side, 3 side chain; linkers in the order of their positions; H or OH if unused. Positions of bridges follow the written chain, without caps; N, C: chain ends. Non-standard residues stand in square brackets, D forms with d. Residues, ends and D or L forms follow the SMILES beside them. Groups on a side chain read outwards from the residue. *: point of attachment. KCOmeglumine = N6-(methyl-((2S,3R,4R,5R)-2,3,4,5,6-pentahydroxyhexyl)carbamoyl)-L-lysine, CN(C[C@H](O)[C@@H](O)[C@H](O)[C@H](O)CO)C(=O)NCCCC[C@H](N[*:1])C(=O)[*:2]; KCOpipzaa = N6-(4-(carboxymethyl)piperazine-1-carbonyl)-L-lysine, O=C(NCCCC[C@H](N[*:1])C(=O)[*:2])N1CCN(CC(=O)[*:3])CC1; OCOmPEG10000 = methoxypolyethyleneglycol (10000) carbonate on Lys NZ; Piperazinyl(4-CH2COOH) = O=C(O)CN1CCN(*)CC1; 1Nal = N[C@@H](Cc1cccc2ccccc12)C(=O)O; Gly(NCH2CH2Ph) = O=C(O)CNCCc1ccccc1; 4Pal = N[C@@H](Cc1ccncc1)C(=O)O; CO = O=C([*:1])[*:2]
# B1: TGFb1_029 (peptide)
# peptide: {CH2CO}-F[1Nal]V[KCOmeglumine]NV[4Pal]DE[Gly(NCH2CH2Ph)]V[1Nal]YHECG-NH2
# modifications: thioether N-16
# SMILES: CC(C)[C@@H]1NC(=O)CN(CCc2ccccc2)C(=O)[C@H](CCC(=O)O)NC(=O)[C@H](CC(=O)O)NC(=O)[C@H](Cc2ccncc2)NC(=O)[C@H](C(C)C)NC(=O)[C@H](CC(N)=O)NC(=O)[C@H](CCCCNC(=O)N(C)C[C@H](O)[C@@H](O)[C@H](O)[C@H](O)CO)NC(=O)[C@H](C(C)C)NC(=O)[C@H](Cc2cccc3ccccc23)NC(=O)[C@H](Cc2ccccc2)NC(=O)CSC[C@@H](C(=O)NCC(N)=O)NC(=O)[C@H](CCC(=O)O)NC(=O)[C@H](Cc2c[nH]cn2)NC(=O)[C@H](Cc2ccc(O)cc2)NC(=O)[C@H](Cc2cccc3ccccc23)NC1=O
# notes: cyclic peptide; C-terminal G is a linker
# B2: TGFb1_021 (peptide)
# peptide: {CH2CO}-F[1Nal]VVNV[4Pal]DE[Gly(NCH2CH2Ph)]V[1Nal]YH[KCOpipzaa]CG-NH2
# modifications: thioether N-16
# SMILES: CC(C)[C@@H]1NC(=O)CN(CCc2ccccc2)C(=O)[C@H](CCC(=O)O)NC(=O)[C@H](CC(=O)O)NC(=O)[C@H](Cc2ccncc2)NC(=O)[C@H](C(C)C)NC(=O)[C@H](CC(N)=O)NC(=O)[C@H](C(C)C)NC(=O)[C@H](C(C)C)NC(=O)[C@H](Cc2cccc3ccccc23)NC(=O)[C@H](Cc2ccccc2)NC(=O)CSC[C@@H](C(=O)NCC(N)=O)NC(=O)[C@H](CCCCNC(=O)N2CCN(CC(=O)O)CC2)NC(=O)[C@H](Cc2c[nH]cn2)NC(=O)[C@H](Cc2ccc(O)cc2)NC(=O)[C@H](Cc2cccc3ccccc23)NC1=O
# notes: as for B1
# B3: TGFb1_032 (peptide)
# peptide: {CH2CO}-F[1Nal]VVNV[4Pal]DD[Gly(NCH2CH2Ph)]V[1Nal]YH[KCOpipzaa]CGK(OCOmPEG10000)-NH2
# modifications: thioether N-16
# notes: cyclic peptide; linker G K(OCOmPEG10000) at the C-terminus
# What was measured:
# recombinant human TGF-β1 [1] = molecular target: T1, recombinant human TGF-β1 (Homo sapiens, UniProt P01137); assay: SPR intermolecular interaction test, TGF-β1 immobilized on CM3 sensor chip (Biacore T200); assay type: binding; details: Single Cycle Kinetics, human TGF-β1
# T1 construct: purchased R&D systems
# Experimental: In this Example, (1) the activity of binding to TGF-β for various peptides consisting of the amino acid sequences set forth in SEQ ID NOs: 2-33 synthesized in Examples 1 to 5 and 7 was evaluated. (2) The activity and selectivity of binding of the peptide consisting of the amino acid sequence set forth in SEQ ID NO: 13 synthesized in Example 2 against two isoforms of TGF-β (TGF-β1 and β2) were checked. For this purpose, the intermolecular interaction of each peptide against TGF-β was tested by surface plasmon resonance (SPR) in the method described below. Specific test methods are described below.
# A CM3 sensor chip (Global Life Science Technologies Japan Co., Ltd.) was inserted into a BiacoreT200 (Global Life Science Technologies Japan Co., Ltd.). Three priming runs were performed using running buffer: HBS-EP+ (Global Life Science Technologies Japan Co., Ltd.). The system was then equilibrated at a flow rate of 30 μL/min.
# (§1) Subsequently, 50 μL of 60 mM EDC solution (Global Life Science Technologies Japan Co., Ltd.) and 50 μL of 650 mM NHS solution (Global Life Science Technologies Japan Co., Ltd.) were mixed. Next, the reaction was carried out at a flow rate of 10 μL/min for 420 seconds. Then, 150 μL of 0.2 μM TGF-β solution diluted in 10 mM acetic acid solution (pH 5.0) was prepared and reacted at a flow rate of 10 μL/min for 420 seconds to immobilize TGF-β on the CM3 sensor chip. TGF-β was human-derived TGF-β1 or β2 (recombinant human TGF-β1, 2) and was obtained from R&D systems. After immobilization, capping was performed by reacting with 1.0 M ethanolamine aqueous solution (Global Life Science Technologies Japan Co., Ltd.) at a flow rate of […] for 420 seconds.
# (§2) A liquid prepared by dissolving each peptide at 10 mM in DMSO solution was diluted with running buffer to prepare a peptide-dissolved solution at a final concentration of 10 μM. Subsequently, 50 nM, 25 nM, 12.5 nM, 5 nM, and 2.5 nM peptide solutions were prepared. Using the above samples, the kinetics of each peptide against TGF-β was obtained by SPR measurement.
# (§3) The kinetics evaluation model was Single Cycle Kinetics, and curve fitting was performed using Biacore T200 Evaluation Software Version 3.0 (Global Life Science Technologies Japan Co., Ltd.). The binding of various peptides to TGF-β was evaluated by performing least-squares curve fitting on the obtained sensorgram to calculate the KD value.
# recombinant human TGF-β1 [2] = molecular target: T1, recombinant human TGF-β1; assay: SBE reporter assay in SBE reporter-HEK293 cells, TGF-β1 stimulation; assay type: cell-based; details: TGF-β1 0.13 nM, 18 hours
# Excerpt: The inhibitory activity of the peptide can be calculated without limitation while the maximum signal induced by TGF-β is set to 0% inhibition and no stimulation is set to 100% inhibition. When the peptide is used at an appropriate concentration, for example, at the optimal concentration, the inhibitory activity is not limited but the inhibition is 5% or more, 10% or more, 20% or more, 30% or more, 40% or more, 50% or more, 60% or more, 70% or more, 80% or more, or 90% or more.
# In this Example, the TGF-β1 inhibitory activity of the peptide of the present invention consisting of the amino acid sequence set forth in SEQ ID NOs: 2-33 synthesized in Examples 1 to 5 and 7 was evaluated by an SBE reporter assay using the SBE reporter-HEK293 cell system (BP Bioscience) as follows.
# SBE reporter-HEK293 cells were cultured in E-MEM (Wako) containing 10% FBS (Sigma). The cells were detached using Accutase (Innovative Cell Technologies), suspended in E-MEM containing 0.5% FBS, seeded onto a 96-well plate(s) at a concentration of 45,000 cells per well, and cultured overnight. The next day, the peptide was added and allowed to stand for 20 min, and recombinant human TGF-β1 (R&D systems) or recombinant human TGF-β2 (R&D systems) was then added at 0.13 nM and cultured for 18 hours.
# Thereafter, luciferase assay ONE-Glo reagent was added to each well and the plate was shaken for 5 min. A SpectraMax Paradigm multimode microplate reader (Molecular Devices) was then used for signal detection. The obtained signals were analyzed by GraphPad Prism. The inhibitory activity of the peptide was calculated while the maximum signal induced by TGF-β was set to 0% inhibition and no stimulation was set to 100% inhibition.
# [3] = molecular target: T2, recombinant human TGF-β1 (R&D systems) (human, UniProt P01137 279-390); assay: cell-based or functional assay
# [4] = molecular target: T2, recombinant human TGF-β1 (R&D systems); assay: SPR, TGF-β1 immobilised, single cycle kinetics
# Experimental: as §1, §2, §3
# T1 sequence (P01137 279-390 limits assumed): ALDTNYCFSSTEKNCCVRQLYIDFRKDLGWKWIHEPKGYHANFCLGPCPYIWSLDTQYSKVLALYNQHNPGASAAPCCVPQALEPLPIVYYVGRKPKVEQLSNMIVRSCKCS
# T2 sequence (P01137 279-390 limits assumed): as above
Molecule,Kd (recombinant human TGF-β1 [1]),inhibition at 62 pM (recombinant human TGF-β1 [2]; peptide 0.062 nM),inhibition at 0.000185 µM (recombinant human TGF-β1 [2]; peptide 0.185 nM),inhibition at 0.00056 µM (recombinant human TGF-β1 [2]; peptide 0.56 nM),inhibition at 0.0017 µM (recombinant human TGF-β1 [2]; peptide 1.7 nM),inhibition at 0.005 µM (recombinant human TGF-β1 [2]; peptide 5.0 nM),inhibition at 0.015 µM (recombinant human TGF-β1 [2]; peptide 15.0 nM),"SBE reporter % inhibition, peptide 0.062 nM [3]","SBE reporter % inhibition, peptide 0.185 nM [3]","SBE reporter % inhibition, peptide 0.56 nM [3]","SBE reporter % inhibition, peptide 1.7 nM [3]","SBE reporter % inhibition, peptide 5.0 nM [3]","SBE reporter % inhibition, peptide 15.0 nM [3]",Kd [4]
CC(C)[C@@H]1NC(=O)CN(CCc2ccccc2)C(=O)[C@H](CC(=O)O)NC(=O)[C@H](CC(=O)O)NC(=O)[C@H](Cc2ccncc2)NC(=O)[C@H](C(C)C)NC(=O)[C@H](CC(N)=O)NC(=O)[C@H](CCCCNC(=O)N2CCN(CC(=O)O)CC2)NC(=O)[C@H](C(C)C)NC(=O)[C@H](Cc2cccc3ccccc23)NC(=O)[C@H](Cc2ccccc2)NC(=O)CSC[C@@H](C(=O)NCC(N)=O)NC(=O)[C@H](CCCCNC(=O)N2CCN(CC(=O)O)CC2)NC(=O)[C@H](Cc2c[nH]cn2)NC(=O)[C@H](Cc2ccc(O)cc2)NC(=O)[C@H](Cc2cccc3ccccc23)NC1=O [TGFb1_019] ({CH2CO}-F[1Nal]VK([CO-Piperazinyl(4-CH2COOH)])NV[4Pal]DD[Gly(NCH2CH2Ph)]V[1Nal]YHK([CO-Piperazinyl(4-CH2COOH)])CG-NH2; thioether N-16),1.41 nM,5.21%,11.3%,30.2%,61.6%,87.8%,96.4%,,,,,,,
B1,,,,,,,,12%,16.9%,32.4%,63.7%,85.8%,96.8%,0.94 nM
B2,,,,,,,,10.2%,26.9%,58.9%,87.8%,97.1%,98.8%,1.37 nM
B3,,,,,,,,2.67%,7.18%,1.11%,4.77%,54%,91.3%,3.08 nM
